The values that follow come from the RNAGym collection of RNA variant scans (doi:10.1021/acssynbio.7b00057).

The chains are these.
B1: Pistol ribozyme (parent)
chain: GGGUCGUUGUUCCAUAAUCGCGUGGAUAUGGCACGCAAGUUUCUACCGGGCACCGUAAAUGUCCGACUGGAGCCGUUCGGGCGGCUAUAAACAGACCUCAGGCCCGAAGCGUGGCGGCACCUGCCGCCGGUGGUAAAAAAGAUCGGAAGAGCACACGUCU

The variants in the data set derive from B1. Description: aptazyme ON/OFF ratio, guanine; higher = stronger switching; co-transcriptional cleavage with and without guanine.
In the case of U7A U8G G9C U10C U11G C13G, the “aptazyme ON/OFF ratio” value stood at 1.26.
For U7C G9C U10A U11G C12A C13G, the “aptazyme ON/OFF ratio” value amounted to 1.03.
With U7A U8A G9C U10G U11G C13G, the “aptazyme ON/OFF ratio” value is 1.18.
With U8G G9U C12A C13U, the “aptazyme ON/OFF ratio” value came to 1.07.
In the case of U10C U11C C12A C13G it was 1.17; in that of U7C U8G U10C U11A C12G C13U, 1.08; in that of U8G U10A C12U C13U, 1.3.
To U7G U8A U10G U11A C12A C13G belongs 1.15; to U7C U8G G9U U11G C12A C13U, 1.21.
With U8A U10C U11G C12U, the “aptazyme ON/OFF ratio” value is 1.37.
Take U7C U8C G9A U10G U11G C13U: the “aptazyme ON/OFF ratio” value amounted to 1.29.
Regarding U7C U8C U10A U11C C12U C13G, the “aptazyme ON/OFF ratio” value worked out at 1.1.
For U7A G9C U10C U11G C12U, the “aptazyme ON/OFF ratio” value worked out at 1.06.
For U7G U8C G9C U11G C12U C13G, the “aptazyme ON/OFF ratio” value worked out at 1.33.
For the variant U7G U8G U10C C12A, the “aptazyme ON/OFF ratio” value was 1.49.
To U7C U8A G9A U10G U11C C12A C13G belongs 1.1; to U7A G9U U10A U11A C12U C13G, 1.15; to U8A G9U U10G U11G C12U C13G, 1.21.
Consider U8C G9A U10A U11A C12U C13G, for which the “aptazyme ON/OFF ratio” value worked out at 1.18.
With U8A G9U U11C C12G C13G, the “aptazyme ON/OFF ratio” value is 1.16.
For U7G U10C U11G C12U C13G, the “aptazyme ON/OFF ratio” value is 1.13.
For U11G C12G C13G, the “aptazyme ON/OFF ratio” value was found to be 1.27.
As for U7A U8C G9A U11C C12G C13A, the “aptazyme ON/OFF ratio” value came to 1.13.
Regarding U7G U8A U10G U11A C12G C13U, the “aptazyme ON/OFF ratio” value came to 1.23.
In the case of U7C U8C G9U U10A U11G C12U C13U it was 1.14; in that of U7C U8G U10G C12U, 1.24; in that of U7A U8G G9C U10A C12G, 1.43.
U7G U8A G9A U10G U11C C12U: the “aptazyme ON/OFF ratio” value stood at 1.09.
In the case of U7G U8G G9C U11G C12G, the “aptazyme ON/OFF ratio” value was found to be 1.6.
As to U7C U8A G9C U10A U11A C12U C13U, the “aptazyme ON/OFF ratio” value was 1.11.
For the variant U7A U8G G9U U10C C12U, the “aptazyme ON/OFF ratio” value was 1.66.
In the case of U7G U8C U11A C12A C13A, the “aptazyme ON/OFF ratio” value is 1.23.
Regarding U7G G9A U10G U11G, the “aptazyme ON/OFF ratio” value amounted to 1.09.
For the variant U7G U8G U11A C12G, the “aptazyme ON/OFF ratio” value worked out at 1.43.
To U7A U8G G9A U10C U11A C12U C13G belongs 1.06; to U7A U8G G9A U10C U11A C12U C13U, 1.1.
On to U7G U8A G9C U10A U11C C13A, for which the “aptazyme ON/OFF ratio” value came to 1.04.
In the case of U7C U8A U10G U11C C12A C13U it was 1.45; in that of U7G U8A G9C U11G C12U, 1.14.
For the variant U7G U8C G9A U10A U11G C12U C13A, the “aptazyme ON/OFF ratio” value is 1.16.
For the variant U8C G9C U10A U11A C12U, the “aptazyme ON/OFF ratio” value turned out to be 1.05.
On to U7C C12A, for which the “aptazyme ON/OFF ratio” value amounted to 1.61.
To U8C G9C U10C U11A C12U C13A belongs 1.02; to U7C U8C U10C U11G, 1.23; to U7C U8C G9C U10C C12G C13A, 1.16.
As to U7G U8A G9C U10A U11A C12U C13A, the “aptazyme ON/OFF ratio” value is 1.04.
As to U7G U8G G9A U11A C12U, the “aptazyme ON/OFF ratio” value came out at 1.44.
As to U7C G9U U11A C12U C13G, the “aptazyme ON/OFF ratio” value is 1.14.
To U7C G9A U10A U11G C12U C13U belongs 1.27; to U7A U8A G9U U10G U11A C12A C13G, 1.09; to U7C U8G U10C U11C C12G C13G, 1.13.
Regarding U7G U8G U10C C12U C13A, the “aptazyme ON/OFF ratio” value was 1.47.
With U7C U8A G9U U10C U11A C12G C13G, the “aptazyme ON/OFF ratio” value was found to be 1.09.
Take U7A U8G G9A U11G C12G: the “aptazyme ON/OFF ratio” value came to 1.32.
In the case of U7G U8A G9A U10C U11G C13G it was 1.15.
Regarding U7C U8G U10A U11C C12A C13U, the “aptazyme ON/OFF ratio” value is 1.15.
For U7C G9A U10C U11C C13G, the “aptazyme ON/OFF ratio” value was determined as 1.02.
As to U7G G9U U10C U11C C13A, the “aptazyme ON/OFF ratio” value is 1.05.
Consider U8A G9A U10C C13A, for which the “aptazyme ON/OFF ratio” value came to 1.06.
U7C G9C U10G C13A: the “aptazyme ON/OFF ratio” value came to 1.11.
In the case of U7A U8G G9C U10G U11G C12A C13A, the “aptazyme ON/OFF ratio” value came out at 1.18.
In the case of U7A U8G U10C C12A C13A it was 1.41; in that of G9A U10C U11G C12A C13G, 1.3; in that of U8A G9C U10A C12U C13G, 1.04.
In the case of U10A U11G C13G it was 1.19; in that of U7G U8C U11G C12A C13A, 1.13.
Consider U7G U8C G9C U10G U11G C13A, for which the “aptazyme ON/OFF ratio” value amounted to 1.1.
U7C U8G G9C U11A C12U C13G: the “aptazyme ON/OFF ratio” value is 1.09.
Consider U7A U8C G9C U10C C12U C13G, for which the “aptazyme ON/OFF ratio” value came out at 1.06.
Regarding G9A U11C C13G, the “aptazyme ON/OFF ratio” value turned out to be 1.11.
To G9A C12G belongs 1.71.
Consider U7G U8C G9A U10G U11G C12U C13U, for which the “aptazyme ON/OFF ratio” value amounted to 1.52.
In the case of U7C U8A G9A U10A C12U C13U, the “aptazyme ON/OFF ratio” value is 1.28.
Turning to U7C U8A G9A U10A C12U C13G, the “aptazyme ON/OFF ratio” value came to 1.14.
In the case of U7A U11G C12A it was 1.16; in that of U8G G9C U10A U11C C13G, 1.04.
In the case of U8C G9A U10A U11G C13U it was 1.18.
Consider U7G U8G G9C U10C U11G C13G, for which the “aptazyme ON/OFF ratio” value came to 1.27.
As to U7A U8G G9C U10A C12U C13G, the “aptazyme ON/OFF ratio” value stood at 1.21.
On to U7C U8G G9A U10C C12U C13G, for which the “aptazyme ON/OFF ratio” value is 1.07.
U8C G9C C12U C13G: the “aptazyme ON/OFF ratio” value is 1.07.
With U7A U8A G9C U10G U11G C12U C13A, the “aptazyme ON/OFF ratio” value stood at 1.17.
For U7A U8A U10A U11A C12G, the “aptazyme ON/OFF ratio” value amounted to 1.19.
